Source: paper PMC12803514, “The RNA-binding protein HuR modulates the expression of the disease-linked CCL2 rs1024611G-rs13900T haplotype”

Molecular target: HuR (ELAVL1 human recombinant protein) (Homo sapiens, UniProt Q15717 1-326)
Experiment: EMSA; HuR 0-150 µM as printed (25-200 µM in Methods); 20 mM HEPES pH 7.6, 3 mM MgCl2, 40 mM KCl, 5% glycerol, 2 mM DTT, 20 µg yeast tRNA, 20 U RNasin, 20 µL, on ice 10 min (plus 15 min with antibody); 5% native PAGE, 0.5x TBE
Settings: protein: commercial

HuR (ELAVL1 human recombinant protein), sequence (Q15717 whole entry): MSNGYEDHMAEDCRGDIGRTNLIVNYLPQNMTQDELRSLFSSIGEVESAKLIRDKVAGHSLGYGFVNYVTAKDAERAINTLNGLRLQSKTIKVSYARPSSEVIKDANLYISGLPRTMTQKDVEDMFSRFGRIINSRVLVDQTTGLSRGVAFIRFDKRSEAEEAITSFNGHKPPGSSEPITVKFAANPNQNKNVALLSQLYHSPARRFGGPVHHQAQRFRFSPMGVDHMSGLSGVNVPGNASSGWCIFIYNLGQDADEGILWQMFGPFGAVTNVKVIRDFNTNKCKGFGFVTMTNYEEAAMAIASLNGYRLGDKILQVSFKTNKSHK

CUUUCCCCAGACACCUUGUUUUAUUU (ssRNA) [rs13900T oligoribonucleotide]: binds.
